Assay results from US20220125947A1.

Assays:
[1] = biological target: Vg5/Vd2 TCR on SKW3 cells (UniProt A0JD36); assay: flow cytometry, dose-response binding at 37° C. on SKW3 cells expressing Vg5/Vd2
[2] = biological target: Vg9/Vd2 TCR on SKW3_4 cells (UniProt Q99603); assay: flow cytometry, dose-response binding at 37° C. on SKW3_4 cells expressing Vg9/Vd2
[3] = biological target: Vg9/Vd1 TCR on SKW3 cells (UniProt Q99603); assay: flow cytometry, dose-response binding at 37° C. on SKW3 cells expressing Vg9/Vd1
Sequence of Vg9/Vd1 TCR on SKW3 cells (Q99603 21-122): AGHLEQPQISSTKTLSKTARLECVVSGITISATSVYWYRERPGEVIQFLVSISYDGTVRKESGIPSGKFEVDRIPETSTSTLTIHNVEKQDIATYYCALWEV

[4] = biological target: Vg9/Vd2 TCR on SKW3_4 cells (UniProt Q99603); assay: flow cytometry DRC binding 37 C, SKW3_4 cells expressing Vg9/Vd2
[5] = biological target: Vg5/Vd2 TCR on SKW3 cells (UniProt A0JD36); assay: flow cytometry DRC binding 37 C, SKW3 cells expressing Vg5/Vd2
[6] = biological target: Vg9/Vd1 TCR on SKW3 cells (UniProt Q99603); assay: flow cytometry DRC binding 37 C, SKW3 cells expressing Vg9/Vd1

Sequence of Vg5/Vd2 TCR on SKW3 cells (A0JD36 20-115): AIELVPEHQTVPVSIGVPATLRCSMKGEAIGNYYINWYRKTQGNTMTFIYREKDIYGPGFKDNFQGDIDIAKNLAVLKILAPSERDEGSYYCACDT
Sequence of Vg9/Vd2 TCR on SKW3_4 cells (Q99603 21-122, chain 1 of 2): as the sequence (Q99603 21-122) above
Sequence of Vg9/Vd2 TCR on SKW3_4 cells (A0JD36 20-115, chain 2 of 2, further chain): as the sequence (A0JD36 20-115) above

B1: VG9B152 (antibody, human IgG1, lambda, V domains shown)
VH: EVQLVESGGGLVRPGGSLRLSCEASGFTFSSYSMIWVRQAPGKGLEWVSSISSSSDYIYNADSVKGRFTISRDNAKNSLYLQMNSLRAEDTAVYYCARDWELLGFDCWGQGTTVTVSS
VL: SYELMQPPSVSVSPGQTASITCSGDKLGDKYACWYQQKPGQSPVLVIYQHNKRPSGIPERFSGSNSGKTATLTISGTQAMDEADYYCQAWDSTTVVFGGGTKLTVLG
Binder B1 has a Max. Activity (fold over background) [1] of 1.64, a Max. Activity (fold over background) [2] of 141 and a Max. Activity (fold over background) [3] of 352.

B2: VG9B44 (antibody, human IgG1, kappa, V domains shown)
VH: QVQLQQSGPGLVKPSQTLSLTCAISGDSVSSNSAAWNWIRQSPSRGLEWLGRTYYRSKWYNDYPISVKSRISINPDTSKNQFSLQLNSVTPEDTAVYYCARESGSYYTDGFDIWGQGTMVTVSS
VL: DIQMTQSPSFLSASVGDRVTITCRASQGISSYLAWYQQKPGKAPKLLIYAASTLQSGVPSRFSGSGSGTEFTLTISSLQPEDFATYYCQEFNSYPYTFGQGTKLEIKR
Work on B2 yielded a Max. Activity (fold over background) [1] of 2.13, a Max. Activity (fold over background) [2] of 170 and a Max. Activity (fold over background) [3] of 375.

B3: VG9B60 (antibody, human IgG1, kappa, V domains shown)
VH: QVQLVQSGAEVKKPGASVKVSCKASGYTFTGYYMHWVRQAPGQGLEWMGRINPNSGVTHYAQKFQGRVTMTRDTSISTAYMELSRLRSDDTAVYYCARGGSLVRGVISGLDYWGQGTTVTVSS
VL: DIVMTQSPGTLSLSPGERATLSCRASQSFSGSYLAWYQQKPGQAPSLLIYGASSRATGIPDRFSGSGSGTDFTLTISRLEPEDFALYYCQQYGSSPPYTFGQGTKVEIKR
Binder B3 has a Max. Activity (fold over background) [1] of 1.42, a Max. Activity (fold over background) [2] of 16.7 and a Max. Activity (fold over background) [3] of 40.6.

B4: VG9B386 (antibody, human IgG1, kappa, V domains shown)
VH: EVQLVESGGGLVKPGGSLRLSCAASGFTFSSYSMIWVRQAPGKGLEWVSSIGSSSTYIYYADSVRGRFTISRDNAKTSLYLQMNSLRAEDTAMYFCARDGETGGFDYWGQGILVTVSS
VL: EIVMTQSPGTLSLSPGERATLSCRASQSISRSYLAWYQQKPGQPPRLLIYGPSNRATGIPDRFSASGSGTDFTLTNSRLEPEDFAVYYCQQYGSLPLTFGGGTKVEIKR
With B4 the Max. Activity (fold over background) [4] was 211, the Max. Activity (fold over background) [5] was 92.7 and the Max. Activity (fold over background) [6] was 389.

B5: VG9B162 (antibody, human IgG1, lambda, V domains shown)
VH: QVQLVESGAEVTKPGASVKVSCKASGYTFTGDYMHWVRQAPGQGLEWMGWINPNSGYTNYAQKFQGRVTMTRDTSISTAYMELSRLRSDDTAVYYCAREGDAFDVWGQGTMVTVSS
VL: QLVLTQSSSASGSPGQSVTISCTGTSSDVGGYNYVSWYQQHPGKAPKLMIYEVSKRPSGVPDRFSGSKSGNTASLTVSGLQAEDEADYYCNSYAGSNNFEVFGGGTKLTVLG
For B5, the Max. Activity (fold over background) [1] was 2.44, the Max. Activity (fold over background) [2] was 96.3 and the Max. Activity (fold over background) [3] was 249.

B6: VG9B144 (antibody, human IgG1, lambda, V domains shown)
VH: QVQLVQSGAEVKKPGASVKVSCKASGYTFTGYYMHWMRQAPGQGLEWMGWINPNSGATNKEQKFQGRVTMTRDTSISTAYMELSRLRSDDTAVYYCAREDDAFDVWGQGTMVTVSS
VL: SSELTQDPAVSVALGQTVRITCQGDNLRNYYATWFQQKPGQAPVLVFFGKNNRPSGIPDRFSGSSSGDTASLTITGAQAEDEADYYCNSRDSSGNHVVFGGGTKLTVLG
B6 gave a Max. Activity (fold over background) [4] of 123, a Max. Activity (fold over background) [5] of 194 and a Max. Activity (fold over background) [6] of 205.

B7: VG9B189 (antibody, human IgG1, lambda, V domains shown)
VH: EVQLVQSGGGLVKPGASLKLSCAASGFTFSNHGMSWVRQTSDKRLEWVASITRGGDTTYYPDNVKGRFTISRENAKNTLYLQMSSLKSDDTALYYCTRGPLTVGYAMDYWGQGTTVTVSS
VL: QSVVTQPPSASGSPGQSVTISCTGTSSDVGGYNYVSWYQQHPGKAPKLMIYEVSKRPSGVPDRFSGSKSGNTASLTVSGLQAEDEADYYCNSYAGSNNFEVFGGGTKVTVLG
With B7 the Max. Activity (fold over background) [4] was 46.1, the Max. Activity (fold over background) [5] was 21.5 and the Max. Activity (fold over background) [6] was 1.46.

B8: VG9B33 (antibody, human IgG1, kappa, V domains shown)
VH: EVQLVESGGGLVKPGGSLRLSCAASGFTFSSYNMNWVRQAPGKGLEWVSSISTSSSYIYYADSVKGRFTISRDNAKNSLYLQMNGLRAEDTAVYYCARDTSVTKYPDTFDIWGQGTMVTVSS
VL: DIVMTQSPSSLSASVGDRVTITCRASQDINNYLAWFQQKPGKVPNLLIYGASTLQSGVPSRFTGSGSGTDFTLTISSLQPEDVATYYCQKYNSAPFTFGPGTKVDIKR
With B8 the Max. Activity (fold over background) [1] was 2.85, the Max. Activity (fold over background) [2] was 173 and the Max. Activity (fold over background) [3] was 377.

B9: VG9B191 (antibody, human IgG1, lambda, V domains shown)
VH: EVQLVQSGGGLVKPGGSLRLSCAASGFTFSRYSMNWVRQAPGKGLEGVSSISSSSSYIYYADSVKGRFTISRDNAKNSLYLQMNSLRAEDTAVYYCARDGPTVNWDYYFDLWGRGTLVTVSS
VL: QSVLTQPPSVSAAPGQKVTISCSGSSSNIGNNYVSWYQQLPGTAPKLLIYDNNKRPSGIPDRFSGSKSGTSATLGITGLQTGDEADYYCGTWDSSLSTSVVFGGGTKLTVLG
B9 showed a Max. Activity (fold over background) [1] of 17.2, a Max. Activity (fold over background) [2] of 156 and a Max. Activity (fold over background) [3] of 381.

B10: VG9B409 (antibody, human IgG1, kappa, V domains shown)
VH: EVQLVESGAEVKKPGASVKVSCKASGYTLTSYYMHWVRQAPGQGLEWMGIINPSGGSTSYAQKFQGRVTMTRDTSTSTVYMELSSLRSEDTAVYYCARGSYGWYFDLWGRGTLVTVSS
VL: EIVLTQSPGTLSLSPGERATLSCRASQSVTSSYLAWYQQKPGQTPRLLIYGASSRATGIPDRISGSGSGTDFTLTVSRLEPEDFAVYYCQQYGSSPPYTFGQGTKLEIKR
B10 gave a Max. Activity (fold over background) [1] of 8.45, a Max. Activity (fold over background) [2] of 176 and a Max. Activity (fold over background) [3] of 408.

B11: VG9B41 (antibody, human IgG1, kappa, V domains shown)
VH: QVQLQESGPQLVRPGASVKISCKASGYSFTTYWMHWVKQRPGQGLEWIGLIDPSDSETRLNQKFKDKATLTVDKSSSTAYMRLSSPTSEDSAVYYCASNRWLLGWGQGTMVTVSS
VL: EIVLTQTPLSSPVTLGQPASISCRSSQSLVHSDGNTYLSWLHQRPGQPPRLLIYKISNRFSGVPDRFSGSGAGTDFTLKISRVETEDVGVYYCVQTREFPLTFGGGTKVEIKR
Binder B11 has a Max. Activity (fold over background) [4] of 11.4, a Max. Activity (fold over background) [5] of 16.1 and a Max. Activity (fold over background) [6] of 2.18.

B12: VG9B21 (antibody, human IgG1, kappa, V domains shown)
VH: EVQLLESGGGLVKPGGSLRLSCAASGFSFSNYDMNWVRQAPRKGLEWVSSISSSSHYIYYADSLKGRFTISRDNAKNSLFLQMNSLRAEDTAVYYCARDRGVTTDYYYYALDVWGQGTMVTVSS
VL: DIVMTQSPSSLSASVGDRVTITCRASQGIYNYLAWYQQKPGNVPKLLIYAASTLQSGVPSRFSGSGSGTDFSLTISSLQPEDFTTYYCQKYNRAPFTFGPGTKVDIKR
For B12, the Max. Activity (fold over background) [1] was 1.86, the Max. Activity (fold over background) [2] was 39.7 and the Max. Activity (fold over background) [3] was 121.

B13: VG9B67 (antibody, human IgG1, kappa, V domains shown)
VH: EVQLVESGGGLVKPGGSLRLSCAASGFTFSSYTMNWVRQAPGKGLEWVSSISSSSSYIDYAESVKGRFTISRDNAKNSLYLQMNSLRAEDTAVYYCARDGDILATIRGSFDYWGQGTTVTVSS
VL: DIVMTQTPLSLPVTPGEPASISCRSSQSLLDSDAGNTYLDWYLQKPGQSPQLLIYTLSYRASGVPDRFSGSGSGTDFTLKISRVEAEDVAIYYCMQRIEFPITFGQGTKVEIKR
B13 showed a Max. Activity (fold over background) [1] of 1.14, a Max. Activity (fold over background) [2] of 128 and a Max. Activity (fold over background) [3] of 318.

B14: VG9B66 (antibody, human IgG1, kappa, V domains shown)
VH: EVQLVESGGGLVKPGGSLRLSCAASGFTFSTYTMNWVRQAPGKGLEWVSSISSSSFYMDYADSVKGRFTISRDNAKNSLSLLMNSLRAEDTAVYYCARDGDIVATIRGSFDYWGQGTMVTVSS
VL: EIVLTQSPSSLSTSVGDRVTITCRASQDITNFLAWYQQKPGKLPKLLIYTASTLQSGVPSRFSGSASGPDFTLTISSLQPEDVATYYCQKYNSAPFTFGPGTKVEIKR
B14 gave a Max. Activity (fold over background) [1] of 1.04, a Max. Activity (fold over background) [2] of 33.9 and a Max. Activity (fold over background) [3] of 179.

B15: VG9B127 (antibody, human IgG1, kappa, V domains shown)
VH: QVQLVESGGGLVKPGGSLRLSCTASGFTFGAYTMNWVRQAPGKGLEWVSSISSSSSYIDFAESVKGRFTISRDNAKNSLYLQMISLRAEDTAVYYCARDGDIVSTIRGSFDYWGQGALVTVSS
VL: EIVMTQSPLSLPVTPGEPASISCRSSQSLLDSDDGNTYLDWYLQKPGQSPQLLIYTLSYRASGVPDRFSGSGSGTDFTLKISRVEAEDVGIYYCMQRIEFPITFGQGTKVEIKR
B15 showed a Max. Activity (fold over background) [1] of 1.78, a Max. Activity (fold over background) [2] of 91.9 and a Max. Activity (fold over background) [3] of 318.

B16: VG9B57 (antibody, human IgG1, kappa, V domains shown)
VH: EVQLVESGGGLVKPGGSLRLSCAASGFTFSSHDMNWVRQAPGKGLGWVSSISSSSSYIFYADSVKGRFTISRDNAKNSLYLQMSSLRAEDTAVYYCARDLGVGVRDYYYYGMDVWGQGTMVTVSS
VL: DIQMTQSPSAMSASVGDRVTITCRASQDITNYLAWFQQKPGKVPKRLIYAASSLQGGVPSRFSGSGSGTEFTLTISSLQPEDFSTYYCLQHDTYPYTFGQGTKLEIKR
With B16 the Max. Activity (fold over background) [1] was 1.04, the Max. Activity (fold over background) [2] was 30.8 and the Max. Activity (fold over background) [3] was 75.9.

B17: VG9B136 (antibody, human IgG1, kappa, V domains shown)
VH: QVQLQQSGPGLVKPSQTLSLTCAISGDSVSSNRAAWNWIRQSPSKGLEWLGRTYYRSKWYNEYAASVKSRMSINPDTSKNQFSLQLNSVTPEDTALYYCARDLWELREACDIWGQGTMVTVSS
VL: DIVMTQSPSFLSTFVGDRVTITCRASQGISSYLAWYQQKPGKVPKLLIYVASTLQSGVPSRFSGSGSGTEFTLTISSLQPEDFATYYCQQLNSYPFTFGPGTKVDIKR
B17 showed a Max. Activity (fold over background) [4] of 181, a Max. Activity (fold over background) [5] of 226 and a Max. Activity (fold over background) [6] of 288.
